Data set [1] is described as follows: anti-FLAG IP, anti-phospho-threonine blot, HEK293, EGF. Particulars: glycan gained; control: no OGT overexpression.
Data set [2] in a line: immunoblot of endogenous SMAD4, A549. Conditions: control: mock / control siRNA / DMSO / 5 mM glucose.
Data set [3] can be described thus: CHX chase, immunoblot, A549.
Data set [4] in a line: denaturing anti-FLAG IP, HA-Ub blot, HEK293, MG132. Conditions: glycan lost; control: FLAG-SMAD4 WT.

B1: SMAD4: OGT overexpression (protein)
parent chain: MDNMSITNTPTSNDACLSIVHSLMCHRQGGESETFAKRAIESLVKKLKEKKDELDSLITAITTNGAHPSKCVTIQRTLDGRLQVAGRKGFPHVIYARLWRWPDLHKNELKHVKYCQYAFDLKCDSVCVNPYHYERVVSPGIDLSGLTLQSNAPSSMMVKDEYVHDFEGQPSLSTEGHSIQTIQHPPSNRASTETYSTPALLAPSESNATSTANFPNIPVASTSQPASILGGSHSEGLLQIASGPQPGQQQNGFTGQPATYHHNSTTTWTGSRTAPYTPNLPHHQNGHLQHHPPMPPHPGHYWPVHNELAFQPPISNHPAPEYWCSIAYFEMDVQVGETFKVPSSCPIVTVDGYVDPSGGDRFCLGQLSNVHRTEAIERARLHIGKGVQLECKGEGDVWVRCLSDHAVFVQSYYLDREAGRAPGDAVHKIYPSAYIKVFDLRQCHRQMQQQAATAQAAAAAQAAAVAGNIPGPGSVGGIAPAISLSAAAGIGVDDLRRLCILRMSFVKGWGPDYPRQSIKETPCWIEIHLHRALQLLDEVLHTMPIADPQPLD
With B1, the “other: threonine phosphorylation” value in data set [1] is reported as “decreases”. In addition, the expression_or_secretion result in data set [2] (glycan gained) was “increases”.

B2: SMAD4: thiamet-G (protein)
parent chain: MDNMSITNTPTSNDACLSIVHSLMCHRQGGESETFAKRAIESLVKKLKEKKDELDSLITAITTNGAHPSKCVTIQRTLDGRLQVAGRKGFPHVIYARLWRWPDLHKNELKHVKYCQYAFDLKCDSVCVNPYHYERVVSPGIDLSGLTLQSNAPSSMMVKDEYVHDFEGQPSLSTEGHSIQTIQHPPSNRASTETYSTPALLAPSESNATSTANFPNIPVASTSQPASILGGSHSEGLLQIASGPQPGQQQNGFTGQPATYHHNSTTTWTGSRTAPYTPNLPHHQNGHLQHHPPMPPHPGHYWPVHNELAFQPPISNHPAPEYWCSIAYFEMDVQVGETFKVPSSCPIVTVDGYVDPSGGDRFCLGQLSNVHRTEAIERARLHIGKGVQLECKGEGDVWVRCLSDHAVFVQSYYLDREAGRAPGDAVHKIYPSAYIKVFDLRQCHRQMQQQAATAQAAAAAQAAAVAGNIPGPGSVGGIAPAISLSAAAGIGVDDLRRLCILRMSFVKGWGPDYPRQSIKETPCWIEIHLHRALQLLDEVLHTMPIADPQPLD
Take B2: the expression_or_secretion entry in data set [2] (glycan gained) was “increases”. In data set [3] (glycan gained, control: untreated (endogenous SMAD4)), the degradation_or_half_life result is “increases”.

B3: SMAD4: T63V (protein)
parent chain: MDNMSITNTPTSNDACLSIVHSLMCHRQGGESETFAKRAIESLVKKLKEKKDELDSLITAITTNGAHPSKCVTIQRTLDGRLQVAGRKGFPHVIYARLWRWPDLHKNELKHVKYCQYAFDLKCDSVCVNPYHYERVVSPGIDLSGLTLQSNAPSSMMVKDEYVHDFEGQPSLSTEGHSIQTIQHPPSNRASTETYSTPALLAPSESNATSTANFPNIPVASTSQPASILGGSHSEGLLQIASGPQPGQQQNGFTGQPATYHHNSTTTWTGSRTAPYTPNLPHHQNGHLQHHPPMPPHPGHYWPVHNELAFQPPISNHPAPEYWCSIAYFEMDVQVGETFKVPSSCPIVTVDGYVDPSGGDRFCLGQLSNVHRTEAIERARLHIGKGVQLECKGEGDVWVRCLSDHAVFVQSYYLDREAGRAPGDAVHKIYPSAYIKVFDLRQCHRQMQQQAATAQAAAAAQAAAVAGNIPGPGSVGGIAPAISLSAAAGIGVDDLRRLCILRMSFVKGWGPDYPRQSIKETPCWIEIHLHRALQLLDEVLHTMPIADPQPLD
Regarding B3, the degradation_or_half_life entry in data set [3] (glycan lost, control: FLAG-SMAD4 WT) is recorded as “decreases”. Also, the “other: polyubiquitination” value in data set [4] is given as “increases”.

B4: SMAD4: QM (protein)
parent chain: MDNMSITNTPTSNDACLSIVHSLMCHRQGGESETFAKRAIESLVKKLKEKKDELDSLITAITTNGAHPSKCVTIQRTLDGRLQVAGRKGFPHVIYARLWRWPDLHKNELKHVKYCQYAFDLKCDSVCVNPYHYERVVSPGIDLSGLTLQSNAPSSMMVKDEYVHDFEGQPSLSTEGHSIQTIQHPPSNRASTETYSTPALLAPSESNATSTANFPNIPVASTSQPASILGGSHSEGLLQIASGPQPGQQQNGFTGQPATYHHNSTTTWTGSRTAPYTPNLPHHQNGHLQHHPPMPPHPGHYWPVHNELAFQPPISNHPAPEYWCSIAYFEMDVQVGETFKVPSSCPIVTVDGYVDPSGGDRFCLGQLSNVHRTEAIERARLHIGKGVQLECKGEGDVWVRCLSDHAVFVQSYYLDREAGRAPGDAVHKIYPSAYIKVFDLRQCHRQMQQQAATAQAAAAAQAAAVAGNIPGPGSVGGIAPAISLSAAAGIGVDDLRRLCILRMSFVKGWGPDYPRQSIKETPCWIEIHLHRALQLLDEVLHTMPIADPQPLD
In the case of B4, in data set [4], the “other: polyubiquitination” value is reported as “increases”.

B5: SMAD4: OSMI-1 (protein)
parent chain: MDNMSITNTPTSNDACLSIVHSLMCHRQGGESETFAKRAIESLVKKLKEKKDELDSLITAITTNGAHPSKCVTIQRTLDGRLQVAGRKGFPHVIYARLWRWPDLHKNELKHVKYCQYAFDLKCDSVCVNPYHYERVVSPGIDLSGLTLQSNAPSSMMVKDEYVHDFEGQPSLSTEGHSIQTIQHPPSNRASTETYSTPALLAPSESNATSTANFPNIPVASTSQPASILGGSHSEGLLQIASGPQPGQQQNGFTGQPATYHHNSTTTWTGSRTAPYTPNLPHHQNGHLQHHPPMPPHPGHYWPVHNELAFQPPISNHPAPEYWCSIAYFEMDVQVGETFKVPSSCPIVTVDGYVDPSGGDRFCLGQLSNVHRTEAIERARLHIGKGVQLECKGEGDVWVRCLSDHAVFVQSYYLDREAGRAPGDAVHKIYPSAYIKVFDLRQCHRQMQQQAATAQAAAAAQAAAVAGNIPGPGSVGGIAPAISLSAAAGIGVDDLRRLCILRMSFVKGWGPDYPRQSIKETPCWIEIHLHRALQLLDEVLHTMPIADPQPLD
Turning to B5, the expression_or_secretion result in data set [2] (glycan lost) was “decreases”.

Values taken from publication PMC7670456.
